“And” between values parts separate entries of the source, which are not always exact repeats. Equal entries are not always repeated.
Assays:
[1] = target: HA-Cdt1 phosphomimetic (2E3D) (human) (UniProt Q9H211); test: co-IP
[2] = target: GFP-tagged Cdt1 deletion fragment 92-410 (human) (UniProt Q9H211); test: BLI
[3] = target: GFP-tagged Cdt1 (92-546 a. a.) (human) (UniProt Q9H211); test: BLI
[4] = target: GFP-Cdt1^2E3D (human) (UniProt Q9H211); test: BLI
[5] = target: GFP-tagged Cdt1 deletion fragment 410-546 (human) (UniProt Q9H211); test: BLI

Substance | % reduction of co-precipitated Ska1 against Cdt1-WT [1] | Kd [2] | Kd [3] | Kd [4] | Kd [5]
SKA1 (endogenous) (from UniProt Q96BD8 1-255) (natural protein) | 50% and 55% | – | – | – | –
Ska1 complex (analyte of the BLI experiments) (from UniProt Q96BD8;Q8WVK7) | – | 220 nM | 70 nM | 185 nM | 360 nM

From publication doi:10.1101/2022.05.05.490787
